Data as given in PMC9482650, “Quantitative fragmentomics allow affinity mapping of interactomes” (Nature Communications, 2022).

T1: MPDZ_10, O75970
T1 sequence (O75970 1624-1722, limits assumed, looked up): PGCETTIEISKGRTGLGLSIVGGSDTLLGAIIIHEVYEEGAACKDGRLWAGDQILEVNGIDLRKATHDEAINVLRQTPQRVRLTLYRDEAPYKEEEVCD

T2: RADIL, Q96JH8
T2 sequence (Q96JH8 971-1071, limits assumed, looked up): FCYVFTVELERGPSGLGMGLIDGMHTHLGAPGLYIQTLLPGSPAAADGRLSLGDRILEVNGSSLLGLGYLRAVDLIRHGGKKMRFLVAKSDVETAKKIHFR

T3: PCLO, Q9Y6V0
T3 sequence (Q9Y6V0 4491-4600, limits assumed, looked up): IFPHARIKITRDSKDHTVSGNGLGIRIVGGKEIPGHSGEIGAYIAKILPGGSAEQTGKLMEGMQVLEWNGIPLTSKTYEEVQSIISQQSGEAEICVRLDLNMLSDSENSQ

T4: DFNB31_1, Q9P202
T4 sequence (Q9P202 135-233, limits assumed, looked up): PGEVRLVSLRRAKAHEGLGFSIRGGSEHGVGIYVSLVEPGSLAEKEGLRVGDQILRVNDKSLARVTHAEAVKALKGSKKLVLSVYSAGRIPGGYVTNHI

T5: GRIP1_7, Q9Y3R0
T5 sequence (Q9Y3R0 999-1096, limits assumed, looked up): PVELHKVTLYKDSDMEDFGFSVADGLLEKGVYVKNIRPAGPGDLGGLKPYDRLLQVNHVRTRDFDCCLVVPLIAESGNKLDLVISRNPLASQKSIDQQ

T6: NHERF3_4, Q5T2W1
T6 sequence (Q5T2W1 373-468, limits assumed, looked up): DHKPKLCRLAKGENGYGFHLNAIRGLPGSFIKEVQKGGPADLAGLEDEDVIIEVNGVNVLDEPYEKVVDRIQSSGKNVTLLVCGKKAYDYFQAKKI

T7: LIN7A, O14910
T7 sequence (O14910 103-200, limits assumed, looked up): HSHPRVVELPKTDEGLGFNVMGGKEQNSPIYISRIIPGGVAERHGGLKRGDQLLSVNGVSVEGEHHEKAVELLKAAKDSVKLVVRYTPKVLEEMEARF

T8: HTRA4, P83105
T8 sequence (P83105 378-476, limits assumed, looked up): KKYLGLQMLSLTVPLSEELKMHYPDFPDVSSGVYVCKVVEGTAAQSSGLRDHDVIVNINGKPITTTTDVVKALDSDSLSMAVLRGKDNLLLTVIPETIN

T9: ARHGEF11, O15085
T9 sequence (O15085 42-136, limits assumed, looked up): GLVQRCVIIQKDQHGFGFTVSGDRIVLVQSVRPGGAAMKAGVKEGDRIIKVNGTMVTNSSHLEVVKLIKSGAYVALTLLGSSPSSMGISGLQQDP

T10: TX1BP3, O14907
T10 sequence (O14907 10-122, limits assumed, looked up): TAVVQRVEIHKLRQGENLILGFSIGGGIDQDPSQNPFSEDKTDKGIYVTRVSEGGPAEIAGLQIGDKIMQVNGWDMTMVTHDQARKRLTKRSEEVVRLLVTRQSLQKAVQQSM

T11: MPP2, Q14168
T11 sequence (Q14168 180-250, limits assumed, looked up): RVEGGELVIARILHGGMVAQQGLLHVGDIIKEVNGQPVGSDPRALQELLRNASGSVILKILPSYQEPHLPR

T12: LNX2_2, Q8N448
T12 sequence (Q8N448 334-432, limits assumed, looked up): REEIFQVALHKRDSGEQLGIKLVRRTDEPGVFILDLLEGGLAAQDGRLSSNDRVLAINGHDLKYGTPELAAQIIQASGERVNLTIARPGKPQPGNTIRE


Molecular target: TJP1_2, Q07157
Experiment: holdup assay
Set-up: key: below the threshold = too weak to quantify, mostly under pKd 3.1 to 4
Settings: plain residues with an end cap or a label only (N-terminal biotin on a linker: ado-ado)

Chain of TJP1_2, Q07157 (Q07157 181-274): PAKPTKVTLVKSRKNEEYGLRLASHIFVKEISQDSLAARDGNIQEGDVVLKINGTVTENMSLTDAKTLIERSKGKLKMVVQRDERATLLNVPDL

| pKd | Binder |
| --- | --- |
| 4.25 | YNNCLEILRV [DCAF7, P61962] |

Molecular target: T1, MPDZ_10, O75970
Experiment: holdup assay
Set-up: key: below the threshold = too weak to quantify, mostly under pKd 3.1 to 4
Settings: plain residues with an end cap or a label only (N-terminal biotin on a linker: ado-ado)

| pKd | Binder |
| --- | --- |
| below the threshold | YNNCLEILRV [DCAF7, P61962] |

Molecular target: Inadl_10, Q8NI35
Experiment: holdup assay
Set-up: key: below the threshold = too weak to quantify, mostly under pKd 3.1 to 4
Settings: plain residues with an end cap or a label only (N-terminal biotin on a linker: ado-ado)

Chain of Inadl_10, Q8NI35 (Q8NI35 1673-1763): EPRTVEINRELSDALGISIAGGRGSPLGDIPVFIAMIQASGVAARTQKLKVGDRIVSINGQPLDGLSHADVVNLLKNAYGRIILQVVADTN

| pKd | Binder |
| --- | --- |
| below the threshold | YNNCLEILRV [DCAF7, P61962] |

Molecular target: MAGI1_2, Q96QZ7
Experiment: holdup assay
Set-up: key: below the threshold = too weak to quantify, mostly under pKd 3.1 to 4
Settings: plain residues with an end cap or a label only (N-terminal biotin on a linker: ado-ado)

Chain of MAGI1_2, Q96QZ7 (Q96QZ7 456-580): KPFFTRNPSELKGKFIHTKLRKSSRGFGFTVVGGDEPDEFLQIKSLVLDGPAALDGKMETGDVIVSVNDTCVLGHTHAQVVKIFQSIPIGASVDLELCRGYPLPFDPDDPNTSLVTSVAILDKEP

| pKd | Binder |
| --- | --- |
| below the threshold | YNNCLEILRV [DCAF7, P61962] |

Molecular target: MAGI1_1, Q96QZ7
Experiment: holdup assay
Set-up: key: below the threshold = too weak to quantify, mostly under pKd 3.1 to 4
Settings: plain residues with an end cap or a label only (N-terminal biotin on a linker: ado-ado)

Chain of MAGI1_1, Q96QZ7 (Q96QZ7 1-106): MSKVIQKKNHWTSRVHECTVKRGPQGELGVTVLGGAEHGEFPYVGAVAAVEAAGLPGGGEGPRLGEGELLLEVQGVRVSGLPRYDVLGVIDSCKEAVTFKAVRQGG

| pKd | Binder |
| --- | --- |
| below the threshold | YNNCLEILRV [DCAF7, P61962] |

Molecular target: T2, RADIL, Q96JH8
Experiment: holdup assay
Set-up: key: below the threshold = too weak to quantify, mostly under pKd 3.1 to 4
Settings: plain residues with an end cap or a label only (N-terminal biotin on a linker: ado-ado)

| pKd | Binder |
| --- | --- |
| 5.14 | YNNCLEILRV [DCAF7, P61962] |

Molecular target: LNX1_3, Q8TBB1
Experiment: holdup assay
Set-up: key: below the threshold = too weak to quantify, mostly under pKd 3.1 to 4
Settings: plain residues with an end cap or a label only (N-terminal biotin on a linker: ado-ado)

Chain of LNX1_3, Q8TBB1 (Q8TBB1 500-596): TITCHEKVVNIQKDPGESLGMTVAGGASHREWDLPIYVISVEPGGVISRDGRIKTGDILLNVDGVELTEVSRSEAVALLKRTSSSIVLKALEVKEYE

| pKd | Binder |
| --- | --- |
| 3.94 | YNNCLEILRV [DCAF7, P61962] |

Molecular target: T3, PCLO, Q9Y6V0
Experiment: holdup assay
Set-up: key: below the threshold = too weak to quantify, mostly under pKd 3.1 to 4
Settings: plain residues with an end cap or a label only (N-terminal biotin on a linker: ado-ado)

| pKd | Binder |
| --- | --- |
| below the threshold | YNNCLEILRV [DCAF7, P61962] |

Molecular target: GOPC, Q9HD26
Experiment: holdup assay
Set-up: key: below the threshold = too weak to quantify, mostly under pKd 3.1 to 4
Settings: plain residues with an end cap or a label only (N-terminal biotin on a linker: ado-ado)

| pKd | Binder |
| --- | --- |
| below the threshold | YNNCLEILRV [DCAF7, P61962] |

Molecular target: T4, DFNB31_1, Q9P202
Experiment: holdup assay
Set-up: key: below the threshold = too weak to quantify, mostly under pKd 3.1 to 4
Settings: plain residues with an end cap or a label only (N-terminal biotin on a linker: ado-ado)

| pKd | Binder |
| --- | --- |
| below the threshold | YNNCLEILRV [DCAF7, P61962] |

Molecular target: Inadl_9, Q8NI35
Experiment: holdup assay
Set-up: key: below the threshold = too weak to quantify, mostly under pKd 3.1 to 4
Settings: plain residues with an end cap or a label only (N-terminal biotin on a linker: ado-ado)

Chain of Inadl_9, Q8NI35 (Q8NI35 1530-1615): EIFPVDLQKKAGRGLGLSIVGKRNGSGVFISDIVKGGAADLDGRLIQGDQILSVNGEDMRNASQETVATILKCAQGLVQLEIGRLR

| pKd | Binder |
| --- | --- |
| 3.57 | YNNCLEILRV [DCAF7, P61962] |

Molecular target: MAGI3_2, Q5TCQ9
Experiment: holdup assay
Set-up: key: below the threshold = too weak to quantify, mostly under pKd 3.1 to 4
Settings: plain residues with an end cap or a label only (N-terminal biotin on a linker: ado-ado)

Chain of MAGI3_2, Q5TCQ9 (Q5TCQ9 398-503): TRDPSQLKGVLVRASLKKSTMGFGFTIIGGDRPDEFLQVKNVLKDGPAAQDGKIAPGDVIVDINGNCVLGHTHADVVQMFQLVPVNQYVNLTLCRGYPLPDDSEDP

| pKd | Binder |
| --- | --- |
| below the threshold | YNNCLEILRV [DCAF7, P61962] |

Molecular target: T5, GRIP1_7, Q9Y3R0
Experiment: holdup assay
Set-up: key: below the threshold = too weak to quantify, mostly under pKd 3.1 to 4
Settings: plain residues with an end cap or a label only (N-terminal biotin on a linker: ado-ado)

| pKd | Binder |
| --- | --- |
| below the threshold | YNNCLEILRV [DCAF7, P61962] |

Molecular target: FRMPD2_1, Q68DX3
Experiment: holdup assay
Set-up: key: below the threshold = too weak to quantify, mostly under pKd 3.1 to 4
Settings: plain residues with an end cap or a label only (N-terminal biotin on a linker: ado-ado)

Chain of FRMPD2_1, Q68DX3 (Q68DX3 770-861): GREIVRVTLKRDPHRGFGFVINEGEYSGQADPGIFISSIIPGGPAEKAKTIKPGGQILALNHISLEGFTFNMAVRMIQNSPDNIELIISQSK

| pKd | Binder |
| --- | --- |
| below the threshold | YNNCLEILRV [DCAF7, P61962] |

Molecular target: Inadl_5, Q8NI35
Experiment: holdup assay
Set-up: key: below the threshold = too weak to quantify, mostly under pKd 3.1 to 4
Settings: plain residues with an end cap or a label only (N-terminal biotin on a linker: ado-ado)

Chain of Inadl_5, Q8NI35 (Q8NI35 673-780): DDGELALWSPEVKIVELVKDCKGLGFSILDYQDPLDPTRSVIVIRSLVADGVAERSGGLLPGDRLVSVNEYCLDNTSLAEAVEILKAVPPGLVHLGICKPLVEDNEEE

| pKd | Binder |
| --- | --- |
| below the threshold | YNNCLEILRV [DCAF7, P61962] |

Molecular target: TJP2_1, Q9UDY2
Experiment: holdup assay
Set-up: key: below the threshold = too weak to quantify, mostly under pKd 3.1 to 4
Settings: plain residues with an end cap or a label only (N-terminal biotin on a linker: ado-ado)

Chain of TJP2_1, Q9UDY2 (Q9UDY2 24-128): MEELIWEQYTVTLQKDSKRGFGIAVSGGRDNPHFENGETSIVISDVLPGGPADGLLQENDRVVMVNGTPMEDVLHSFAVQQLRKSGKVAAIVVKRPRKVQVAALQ

| pKd | Binder |
| --- | --- |
| below the threshold | YNNCLEILRV [DCAF7, P61962] |

Molecular target: T6, NHERF3_4, Q5T2W1
Experiment: holdup assay
Set-up: key: below the threshold = too weak to quantify, mostly under pKd 3.1 to 4
Settings: plain residues with an end cap or a label only (N-terminal biotin on a linker: ado-ado)

| pKd | Binder |
| --- | --- |
| below the threshold | YNNCLEILRV [DCAF7, P61962] |

Molecular target: IL16_3, Q14005
Experiment: holdup assay
Set-up: key: below the threshold = too weak to quantify, mostly under pKd 3.1 to 4
Settings: plain residues with an end cap or a label only (N-terminal biotin on a linker: ado-ado)

Chain of IL16_3, Q14005 (Q14005 1107-1207): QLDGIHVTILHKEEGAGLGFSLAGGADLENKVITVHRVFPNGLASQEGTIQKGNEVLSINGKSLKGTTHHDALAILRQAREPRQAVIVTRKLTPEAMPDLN

| pKd | Binder |
| --- | --- |
| below the threshold | YNNCLEILRV [DCAF7, P61962] |

Molecular target: T7, LIN7A, O14910
Experiment: holdup assay
Set-up: key: below the threshold = too weak to quantify, mostly under pKd 3.1 to 4
Settings: plain residues with an end cap or a label only (N-terminal biotin on a linker: ado-ado)

| pKd | Binder |
| --- | --- |
| below the threshold | YNNCLEILRV [DCAF7, P61962] |

Molecular target: T8, HTRA4, P83105
Experiment: holdup assay
Set-up: key: below the threshold = too weak to quantify, mostly under pKd 3.1 to 4
Settings: plain residues with an end cap or a label only (N-terminal biotin on a linker: ado-ado)

| pKd | Binder |
| --- | --- |
| 4.68 | YNNCLEILRV [DCAF7, P61962] |

Molecular target: T9, ARHGEF11, O15085
Experiment: holdup assay
Set-up: key: below the threshold = too weak to quantify, mostly under pKd 3.1 to 4
Settings: plain residues with an end cap or a label only (N-terminal biotin on a linker: ado-ado)

| pKd | Binder |
| --- | --- |
| 3.78 | YNNCLEILRV [DCAF7, P61962] |

Molecular target: T10, TX1BP3, O14907
Experiment: holdup assay
Set-up: key: below the threshold = too weak to quantify, mostly under pKd 3.1 to 4
Settings: plain residues with an end cap or a label only (N-terminal biotin on a linker: ado-ado)

| pKd | Binder |
| --- | --- |
| below the threshold | YNNCLEILRV [DCAF7, P61962] |

Molecular target: T11, MPP2, Q14168
Experiment: holdup assay
Set-up: key: below the threshold = too weak to quantify, mostly under pKd 3.1 to 4
Settings: plain residues with an end cap or a label only (N-terminal biotin on a linker: ado-ado)

| pKd | Binder |
| --- | --- |
| below the threshold | YNNCLEILRV [DCAF7, P61962] |

Molecular target: T12, LNX2_2, Q8N448
Experiment: holdup assay
Set-up: key: below the threshold = too weak to quantify, mostly under pKd 3.1 to 4
Settings: plain residues with an end cap or a label only (N-terminal biotin on a linker: ado-ado)

| pKd | Binder |
| --- | --- |
| 4.91 | YNNCLEILRV [DCAF7, P61962] |

Molecular target: FRMPD2_2, Q68DX3
Experiment: holdup assay
Set-up: key: below the threshold = too weak to quantify, mostly under pKd 3.1 to 4
Settings: plain residues with an end cap or a label only (N-terminal biotin on a linker: ado-ado)

Chain of FRMPD2_2, Q68DX3 (Q68DX3 944-1038): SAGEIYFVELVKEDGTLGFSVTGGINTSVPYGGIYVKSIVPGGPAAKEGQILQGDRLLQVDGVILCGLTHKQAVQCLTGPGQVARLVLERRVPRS

| pKd | Binder |
| --- | --- |
| below the threshold | YNNCLEILRV [DCAF7, P61962] |
